Experimental findings from CN1934266A (LILLY CO ELI, dated 2007) are described below.

Changes are numbered by the printed parent chain.

Sequences and labels used below:
B1: 抗肌肉生长抑素Fab 3 (Fab, V domains shown)
VH: QVTLKESGPGILQSSQTLSLTCSLSGFSLRTSGMSVSWIRQSSGKGLEWLAHIYWDDDKRYNPSLRNRLTISKDTLRNQVFLKITSVGTADTATYYCARRAITTVIGGGTMDYWGQGTSVTVSS
VL: QIVLTQSPAIMSASPGEKVTMTCSASSSISYMHWYQQKPGTSPKRWIYDTSKLASGVPARFSGSGSGTSYSLTISSMEAEDAATYYCQQWYSNPLTFGAGTKLELKR
B2: 抗肌肉生长抑素Fab 5 (Fab, V domains shown)
VH: B1 VH with L24F, R30S, N67S, L76S, G88D, A101G, I106L
VL: B1 VL with I2V, P15L, I29V, S30H, P39S, Y91S
B3: 抗肌肉生长抑素Fab 7 (Fab, V domains shown)
VH: QVTLKSGPGILQSSQTLTLTCSLSGFSLTTSGMIVSWIRQSSGRGLEWLAHIYWDDDKRYNPSLRNRLTISKDTLRNQVFLWISSVGTADTATYYCARRAITTVIGGGTMDYWGQGTSVTVSS
VL: B1 VL

BMP-2 (R&D Systems 355-BEC/CF), sequence (P12643 283-396 limits assumed): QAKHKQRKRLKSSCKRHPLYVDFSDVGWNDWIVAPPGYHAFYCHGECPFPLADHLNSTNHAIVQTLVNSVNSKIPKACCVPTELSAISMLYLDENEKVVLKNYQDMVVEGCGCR
IGF-1 (R&D Systems 291-G1), sequence (P05019 49-118 limits assumed): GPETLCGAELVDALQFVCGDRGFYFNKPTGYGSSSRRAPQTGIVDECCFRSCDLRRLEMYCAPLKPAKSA

The first assay concerns the target T1, 重组人GDF-11(Peprotech公司，目录号120-11) (human, UniProt O95390 299-407).
T1 sequence (looked up): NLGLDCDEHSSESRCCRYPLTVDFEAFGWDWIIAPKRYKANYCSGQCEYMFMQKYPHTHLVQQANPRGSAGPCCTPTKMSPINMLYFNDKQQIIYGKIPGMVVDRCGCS
As to the kind of experiment: ELISA, growth factor coated at 10 μg/ml, antibody at 10 μg/ml, mean of duplicates. Background: An ELISA detects its analyte on a solid surface through an enzyme-linked reagent.
Regarding B1, the “平均吸光度 (OD 490 nm)” value was found to be 0.0705 OD 490 nm.
Turning to B2, the “平均吸光度 (OD 490 nm)” value worked out at 0.034 OD 490 nm.
In the case of B3, the “平均吸光度 (OD 490 nm)” value is 0.04 OD 490 nm.

A further assay concerns the target IGF-1 (R&D Systems 291-G1) (UniProt P05019 49-118). Described as above.
Regarding B1, the “平均吸光度 (OD 490 nm)” value is 0.034 OD 490 nm.
On the same count and under the same terms, as for B2, the figure is 0.035 OD 490 nm; as for B3, 0.034 OD 490 nm.

The next assay has as its target BMP-2 (R&D Systems 355-BEC/CF) (UniProt P12643 283-396). Described as above.
Consider B1, for which the “平均吸光度 (OD 490 nm)” value stood at 0.0345 OD 490 nm.
Turning to B2, the “平均吸光度 (OD 490 nm)” value stood at 0.032 OD 490 nm.
In the case of B3, the “平均吸光度 (OD 490 nm)” value worked out at 0.0335 OD 490 nm.

Another assay concerns the target T2, BMP-5 (R&D Systems 615-BM) (UniProt P22003 317-454, limits assumed).
T2 sequence (looked up): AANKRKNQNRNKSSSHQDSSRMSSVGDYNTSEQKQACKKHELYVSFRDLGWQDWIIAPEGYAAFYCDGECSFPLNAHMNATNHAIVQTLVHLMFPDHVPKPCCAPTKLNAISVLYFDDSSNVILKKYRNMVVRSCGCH
The assay is described as above.
Regarding B1, the “平均吸光度 (OD 490 nm)” value came out at 0.034 OD 490 nm.
Take B2: the “平均吸光度 (OD 490 nm)” value came to 0.033 OD 490 nm.
In the case of B3, the “平均吸光度 (OD 490 nm)” value worked out at 0.0345 OD 490 nm.

In the next assay the target is T3, BMP-6 (R&D Systems 507-BP) (UniProt P22004 382-513, limits assumed).
T3 sequence (looked up): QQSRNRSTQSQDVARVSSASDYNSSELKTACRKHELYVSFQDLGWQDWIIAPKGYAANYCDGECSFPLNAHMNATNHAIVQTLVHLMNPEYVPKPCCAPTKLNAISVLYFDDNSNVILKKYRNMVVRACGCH
Described as above.
Regarding B1, the “平均吸光度 (OD 490 nm)” value is 0.0335 OD 490 nm.
The same measure, in the same setting: as for B2, the figure is 0.0325 OD 490 nm; as for B3, 0.035 OD 490 nm.

In the next assay the target is T4, BMP-7 (R&D Systems 354-BP) (UniProt P18075 293-431).
T4 sequence (looked up): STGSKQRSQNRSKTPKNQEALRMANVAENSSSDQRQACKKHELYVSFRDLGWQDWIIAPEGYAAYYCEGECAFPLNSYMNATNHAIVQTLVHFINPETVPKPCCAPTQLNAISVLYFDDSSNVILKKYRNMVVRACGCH
Described as above.
On to B1, for which the “平均吸光度 (OD 490 nm)” value stood at 0.033 OD 490 nm.
As to B2, the “平均吸光度 (OD 490 nm)” value worked out at 0.032 OD 490 nm.
As for B3, the “平均吸光度 (OD 490 nm)” value stood at 0.031 OD 490 nm.

The target of another assay is T5, 激活蛋白A (R&D Systems 338-AC) (UniProt P08476 311-426).
T5 construct: also called activin A
T5 sequence (looked up): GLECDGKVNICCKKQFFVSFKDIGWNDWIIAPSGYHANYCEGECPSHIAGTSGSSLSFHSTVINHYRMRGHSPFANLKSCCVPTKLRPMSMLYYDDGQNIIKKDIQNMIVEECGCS
The description is as above.
Consider B1, for which the “平均吸光度 (OD 490 nm)” value is 0.033 OD 490 nm.
The same measure, in the same setting: as for B2, the figure is 0.033 OD 490 nm; as for B3, 0.0325 OD 490 nm.

The target of another assay is T6, 激活蛋白B (R&D Systems 659-AB) (UniProt P09529 293-407).
T6 construct: also called activin B
T6 sequence (looked up): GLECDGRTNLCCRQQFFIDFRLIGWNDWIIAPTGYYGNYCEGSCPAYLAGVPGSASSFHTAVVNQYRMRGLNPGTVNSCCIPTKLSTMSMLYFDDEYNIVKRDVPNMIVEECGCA
The assay is described as above.
Take B1: the “平均吸光度 (OD 490 nm)” value was found to be 0.032 OD 490 nm.
B2: the “平均吸光度 (OD 490 nm)” value worked out at 0.033 OD 490 nm.
Take B3: the “平均吸光度 (OD 490 nm)” value was 0.031 OD 490 nm.

For the next assay, the target named is T7, TGF-a (R&D Systems 239-A) (UniProt P01135 40-89).
T7 construct: also called TGF-α
T7 sequence (P01135 40-89 limits assumed): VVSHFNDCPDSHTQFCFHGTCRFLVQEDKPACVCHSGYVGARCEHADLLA
The assay is described as above.
As for B1, the “平均吸光度 (OD 490 nm)” value was determined as 0.033 OD 490 nm.
Regarding B2, the “平均吸光度 (OD 490 nm)” value worked out at 0.033 OD 490 nm.
As for B3, the “平均吸光度 (OD 490 nm)” value came out at 0.0315 OD 490 nm.

For another assay, the target named is T8, TGF-b1 (Peprotech 100-21R) (UniProt P01137 279-390).
T8 construct: also called TGF-β1
T8 sequence (P01137 279-390 limits assumed): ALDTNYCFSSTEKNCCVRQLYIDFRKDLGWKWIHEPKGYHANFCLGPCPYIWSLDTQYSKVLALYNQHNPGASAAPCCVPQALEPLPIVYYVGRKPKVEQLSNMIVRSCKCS
The description is as above.
Take B1: the “平均吸光度 (OD 490 nm)” value is 0.034 OD 490 nm.
Consider B2, for which the “平均吸光度 (OD 490 nm)” value amounted to 0.0325 OD 490 nm.
B3: the “平均吸光度 (OD 490 nm)” value is 0.032 OD 490 nm.

The target of the next assay is T9, TGF-b2 (Peprotech 100-35) (UniProt P61812 303-414).
T9 construct: also called TGF-β2
T9 sequence (looked up): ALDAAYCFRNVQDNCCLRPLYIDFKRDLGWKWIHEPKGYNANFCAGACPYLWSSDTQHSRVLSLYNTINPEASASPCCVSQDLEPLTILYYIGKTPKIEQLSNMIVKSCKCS
Described as above.
On to B1, for which the “平均吸光度 (OD 490 nm)” value turned out to be 0.034 OD 490 nm.
Regarding B2, the “平均吸光度 (OD 490 nm)” value was found to be 0.034 OD 490 nm.
As for B3, the “平均吸光度 (OD 490 nm)” value stood at 0.0345 OD 490 nm.
